The text below walks through data of article PMC3294146.

In test [1] the target is Co-hArgI-C^PEG-20K (hArgI-C conjugated at the N-terminal Cys to 20 KDa PEG-maleimide) (human). Briefly: SEC.
For test [2], the target named is human Arginase I with an engineered N-terminal Cys residue (hArgI-C), not PEGylated (human). Put plainly: SEC.

For orientation: stoichiometry N means a count of units in the complex or per binding partner. As to “Co-hArgI-C^PEG-20K (hArgI-C conjugated at the N-terminal Cys to 20 KDa PEG-maleimide) (enzyme)”, the stoichiometry N in test [1] is 3. Turning to “human Arginase I with an engineered N-terminal Cys residue (hArgI-C), not PEGylated (enzyme)”, in test [2], the percent dimeric came out at 10% and the percent monomeric turned out to be 90%.
